Assay: yeast display, Sf9 membrane polyspecificity reagent, FACS + sequencing; frameworks hold sequencing errors
Procedure, shortened: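 After 36–48 hours of galactose induction, yeast (Saccharomyces cerevisiae BJ5465) displaying a synthetic nanobody library were stained at 4 °C for 1 hour with 10% biotinylated, detergent-solubilized Sf9 membrane reagent. Streptavidin microbeads enriched the stained cells before FACS sorting into low and high (top ~1%) gates on anti-HA and streptavidin fluorescence. Each clone's polyreactivity label reflects its gate of origin.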

Sequence	polyreactivity (PSR sort gate)
KVQLVESRGGLVQAGGSLRLSCAASGIIFYTYAMGWNRQAPGKERELVASISWDVDSTNYADSVKGRFTISRDNAKNTVYLQMNSLKPEYTAVYYCAVDYTFDSYWYWVDYYEYGYWGQGTQVTVSS	high polyreactivity
KVQLVETGGGLVQAGGSLRLSCAASGSILIYNAMGWYRQAPGKERELVAGISRRGASTYYADSVKGRFTNSRDNAKKTVYLQMKSLKPEDTAVYYCAALGKYIVAWSGDFWGQGTQVTVSS	low polyreactivity
LGQVVESGGGLVQAGGSLRLSCAASGRIFHRNTMGWYRQAPGKEWELVAAISGSTGRTYYADSVKGRFPISRDNAKTTVYLQMNSLKPEDTAVYYCAKVYRRSGSVARYDYGGQGTQVTVSS	high polyreactivity
LLMGWYRQAPGEERELVAGINDGASTNYADSVKGRFTISRDNARNTVYLKMNSLKPGDTAVYYCAVWQPVLIWFYYWGQGTQVTVSS	high polyreactivity
LVLLVESGGGLVQAGGSLRLSCAASGSSLDWYAMGWYRQAPGNVRELVASLSYSGGTTYYADSVTVRFTISRDNAKNTVYLQMISLKPDDTAVDYCATDLLNNVDYDYWGQGTQVTVSS	low polyreactivity
LVQLVESGGGLVQAGGSLRLICAASGSIFSGYAMGWYRQAPGNERELVAAITRSGGRTYYADSVKGRFTISRDNAKNTVYLQMNSLKPEDTAGYYCATLPRYYGYWGQGTQVTVSS	high polyreactivity
LVQLVESGGGLVQAGGSLRLSCAASGITLARNAMGWYRQAPGKEWELVAAITWSGGTTYYADSVKGRFTISRDNAKNTVYLQMNSLKPEDTAVYYCAASAKLHYYRTYRYNYWGQGTQVTVSS	high polyreactivity
LVQLVESGGGLVQAGGSLRLSCAASGSTFANNAMGWYRQAPGKERELVASITTDGSTNYADSVKGRFTISRDNAKNTVYLQMNSLKPEDTAVYYCAAAYQKSPITPKMDYWGQGTQVTVSS	low polyreactivity
LVQLVESGGGLVQAGGSLRLSCAASGSTFDYYAMGWYRQAPGQERELVAAISGSGDRTYYADSVKGRFTISRDNAKNTVYLQMNSLKPEDTAVYYCAKYGRTRFYYWGQGTQVTVSS	high polyreactivity
LVQLVESGGRLVQAGGSLRLSCAASGRTFPAYTMGWYRQSPGKERDLVAANYSSGGTTYYADSVKGRFTISRDNAKNTVYLQIYSINPEDNAVYYCNAYLGYYYYYLDALIGYDYWGQGTQVTVSS	low polyreactivity
PLQLVESGGGLVQAGGSLRLSCAASGIIFGRYTMGWYRQAPGKERELFAAITSSGITYYADSVNGRFTISRDNAKNTVYLQLNSLKPEDTAVYYCNADYSIPGYYWPYDYWGLGTQVTVSS	low polyreactivity
PVQLQESGGGLVQAGGSLRLSCAESGNIFDADIMGWYRQAPGKERELVDCIADGGSTNYADSVKGSFTISRDNAKITVYLQMNSLKPEDTAVYYCAAIAYPDIPTCFDYDSDYFFRGQGTQVTVSS	low polyreactivity
PVQLVESGGGIVQAGGSLRLSCAASGSTFVGKAMGWSRQAPGKQREMFAAISRTGGSPYYADSVKGRFSISRDNAKNSVYLQMISLKPEDTAVYYCAEVYGGPYGELDYWGHGTQVTVSS	high polyreactivity
PVQLVESGGGLVQAGASLRLSCAASGNTFIENAKGSYRQAPGKERELVADIDTGGSTYYADSVKGRFTISRDNAKNTVYLQMNRLKPEDTADYYCTAVGLYLYRYKFGYLGKIGPGYDYWGQGTQVTVSS	low polyreactivity
PVQLVESGGGLVQAGGILRLSCAACGRIFQRNAMGWYRQAPGKERELVATITSRGGSTYYADSVKGRFTISRDNAKNTVYLQMNSLKPEDTAVYYCAADPRRYRGFGYVYGGFYYWGQGTQVTVSS	low polyreactivity
PVQLVESGGGLVQAGGRLRLSCAASGIIFSDYAMGWYRQAPGKERELVAAIPGGGSTYYADSVKGRFTISRDNAKNTVYLQMNSLKPEDTAVYYCNADWARLWIRSTEVDYWGQGTQVTVSS	low polyreactivity
PVQLVESGGGLVQAGGSHRVICAASGRIFYVDAMGWSTQAPGKERELVADMSRGGSTNYADSVKGRFTISRDNAKKTVYLQMNRLKPEDTSVYYCNTDGLWSAEYDYWGQGTQVTVSS	low polyreactivity
PVQLVESGGGLVQAGGSLLLSCAASGRTFIYYAMGWYRQAPGKERELVAGISRHGGRTYYADSVKGRFTISRDNAKNTVYLQMNSLKPEDTAVYYCNAYPPSGHDYWGQGTQVTVSS	high polyreactivity
PVQLVESGGGLVQAGGSLRLICAASALTFPPYSMGWYRQAPAKERELVAAISRNAGNTYYADSVKGRFTISRDTAKNTVYLQMNSLKPEDTAVYYCAAKRGTQGMYYWGQGTQVTVSS	high polyreactivity
PVQLVESGGGLVQAGGSLRLSCAASGSIFCYYTMGWYRQAPGKERELVASIDYSGVSTYYADSVKGRFTISRDNAKNTVYLQMNSLKPEDTAVYDCNAVYYSWDGSTWEYGYWGQGTQVTVSS	low polyreactivity
PVQLVESGGGLVQAGGSLRLSCAASGSIFDLNAMGWYRQAPGKERELVAAISSGGGTYYADSVKGRFTISLDNAKNTVYLQMNSLKPEDTAVYSCNRVTRGSYNYWGQGTQVTVSS	high polyreactivity

Sequence	polyreactivity (PSR sort gate)
PVQLVESGGGLVQAGGSLRLSCAASGSTFRRNVMGWYRQAPGKEREFVAAISYRTGSTYYADSVKGRFTISRDNAKNTVYLQMNSLKPEDTAVYYCAASSQWVGYYYWGQGTQVTVSS	high polyreactivity
PVQLVESGGGLVQAGGSLRLSCAASGSTFTSNAMGWYRQAPGKERELVAAIDRNGGRTYYADSVNGRFTISRDNAKNTVYLQMNSMKPEDTEVYYCAVLSKYRRTFGSWGQGTLVTVSS	high polyreactivity
PVQLVESGGGLVQAGGSLRLSCAGSGFTFYTNTMGWYIQAPGKERELVAAISSGGSTYADSVKVRYTISRDNAKNTVDLQMNSLKPEDTAVYYCARDFYYSLSGFDYWGQGTQVTVSS	low polyreactivity
PVQLVESGGGLVQAGGSLRLSWAASGRIFVVNAMGWYRQAPGKEREFLASITRGASTYADSVKGRFTISRDNAKNTVYLQMNSLKPEDTAVYYCSDAKRPQVVRYDWTKLEYWGQGTQVTVSS	high polyreactivity
PVQLVESGGVLVQAGGSLRLSCAASGITFWDKAMGWYRQPPGKERELVAAITSGNTDYADSVKGRFTISRDNAKNSVYLPMTSLIPEDTAVYYCGAELLVGGGVTVDYWGQGTQVTVSS	low polyreactivity
QAELVESGGGLVQAGGSLRLSCAASGLTFRAYAMGWYRQAPGKERELVAAISWNGGSTYYADSVKGRFTISRDNAKNTVYLQMNSLKPEDTAVYYCNAYDYQYFYGYEYDYWGQGTQVTVSS	high polyreactivity
QAQLKESGGSLVQAGGGLRLSCAASGYNSVGSVMGWYRQAPSKERELVASIDQGANTNYADSVKGRFTISRDNAKNNVYLQMNSLKPEDTAVYYCATETTYFLNYWGQGTQVTVSS	low polyreactivity
QAQLQESGGSLVQAGGGLRLSCAASGYISVGSVMGWYRQAPSKERELVASIDQGANTNYADSVKGRFTISRDNAKNYVYLQMNSLKPEDTAVYYCATETTYILNYWGQGTQVTVSS	low polyreactivity
QAQLQESGGSLVQAGGGLRLSCAASGYISVGSVMGWYRQAPSKERELVASIDQGANTNYADSVKGRFTISRNNAKNNVYLQMNSLKTEDTAVYYCATETTYILNYCGQGTQVTVSS	low polyreactivity
QAQLVESGGGLVQAGGSLRLSCAASGRTFYYYTMGWYRQAPGKERELVAAISYSGGSTSYADSVKGRFTISRDNAKNTVYLQMNSLKPEDTAVYYCNARYKYYTQRRYHYDYWGQGTQVTVSS	high polyreactivity
QAQLVESGGGLVQAGGSLRLSCAASGRTLAWYALGWYRQAPGKERELVADISSGGSTYYADSVKGRFTISRDNAKHTVYVQMNSLKPEDTAVYYCAARWRSWRYKDDYWGQGTQVTVSS	high polyreactivity
QAQLVESGGGLVQAGGSLRLSCAASGRTSYRYVMGWYIQAPGKERELVAAISRGGRTYYADSVKGSFTISRDNAKYTVYLQMNSLNPEVTAVYYCNAAFGVYVATGDSFPRHKKFGFWGQGTQVTVSS	high polyreactivity
QAQLVESGGGLVQAGGSLRLSSAATGIIFGRYAMGWYRQAPGKERELVAAISTSGGSTYYADSVKGRFTISRDNAKNTVYLQMNSLKAEDTAVYYCAVDLFYKYDWGQGTQVTVSS	high polyreactivity
QDHLVESGGGIVQAGGSLRLSCAASGRTFHLNAIGWYRQAPGKARELVAAITNSGGRTSNADSVKGRFTISRDNAKNTVYLQMNSLKPQVTEVFFCNVEVTYSSGKYDYWGQGTQVTVSS	low polyreactivity
QDHLVESGGGLVQAGGSLRLSCAASGRIFDPYAMGWYRQAPGKERELVARITWRGGRTYYADSVKGRFTISLDNAKNTVYLQMNSLKPEDTAVYYCNAVFYYRYYGAYDYWGQGTQVTVSS	high polyreactivity
QDHLVESGGGLVQAGGSLRLSCAASGRTVGIYAMGWYRQAPGKVRELVASISWSGGRTYYADSVKGRFTISRENAKNTVYLQMNSLKPEDTAVYYCAAYGVYYPRSWLYFDWYGYCGQGTQVTVSS	high polyreactivity
QDHLVESGGGLVQAGGSLRLSCAASGSTFYFYAMGWYREAPGKERELVAVISSGGRTYYADSVKGRFTISRDNAKNSVYLQMNSLKPVDTGVYYGAASWPSSLTFYYWGHGTQVTVSS	low polyreactivity
QDHLVESGGGLVQAGGSLRLSCAAYGRTFESYAMGRYRHAPGKERELVAAISYSGGSTYYADSVKGRFTISRDNAKNTVYLQMNSLKPEDTAVYYCAVRWRYKYDYWGQGTQVTVSS	high polyreactivity
QDHLVESGGGLVQAGGSLRLSCAPSGSIFSYNSMGWYRQAPGKERELVAGISSDGSTNYADSVKGRFSISRDNAKNTVYLQMNSLKPEDTAVYYCAADEIVWQADLWGYGIYDYWGHGTQVTVSS	high polyreactivity
QDQHVESAGGLVQAGGSLRLSCAASGRIFTINARGWYRQAPGKERELVAGISGRSGGTYYADSVKGRFTISRDNAKNTVYLEMNSLKPEDTAVYYCAGDDWYSTYFEFNYWGQGTQVTVSS	low polyreactivity

— the nanobody polyreactivity screen of Harvey et al. (2022)
